According to publication PMC5757174, “Biophysical characterization of Atg11, a scaffold protein essential for selective autophagy in yeast” (FEBS Open Bio, 2017):
“And” between values parts separate entries of the source, which are not always exact repeats. Equal entries are not always repeated.

Key:
[1] = target: the molecule itself; experiment: AUC; sedimentation velocity, 36 000 r.p.m., 20 °C; Atg11_N at 0.61 mg/mL and Atg11_C at 0.92 mg/mL in 20 mM Tris pH 8.0, 150 mM NaCl; c(s) by SEDFIT
Q12527 [2] = experiment: SEC; Superdex 200 Increase 10/300 GL, 20 mM Tris pH 8.0, 150 mM NaCl; mass estimated from globular standards
[3] = target: the molecule itself; experiment: AUC; sedimentation velocity, 42 000 r.p.m., 20 °C; full-length Atg11 at 0.65 mg/mL in 20 mM Tris pH 8.0, 300 mM NaCl, 1 mM DTT; c(s) by SEDFIT
Q12527 [4] = experiment: SEC; Superose 6 Increase 10/300 GL, 20 mM Tris pH 8.0, 300 mM NaCl, 1 mM DTT; mass estimated from globular standards

Row | Protein | stoichiometry N [1] [copies] | copies from the apparent SEC mass (globular standards) (Q12527 [2]) | stoichiometry N [3] [copies] | copies from the apparent SEC mass (globular standards) (Q12527 [4])
1 | C-terminal region of Atg11 (residues 700-1178) (domain or fragment, S. cerevisiae, UniProt Q12527 700-1178, looked up, Atg11, Saccharomyces cerevisiae, residues 700-1178 (55 kDa); Expressed from a modified pMAL-c2E vector as an MBP fusion with an HRV3C site; MBP was cleaved off; A few residues of the site may remain; also called Atg11_C; source: E. coli BL21(DE3), purified (Amylose, HRV3C cleavage, SP-Sepharose, Superdex 200)) NHQIQELESNVDDLLHQLQLLKEENNRKSMQISEMGKKISDLEVEKTAYRETLTNLNQELARLTNEEQSHRTEIFTLNASFKKQLNDIISQDNEKIEKLTGDYDDVSKSRERLQMDLDESNKKHEQEVNLLKADIERLGKQIVTSEKSYAETNSSSMEKGEKFETIPLAEDPGRENQISAYTQTLQDRIFDIISTNIFILENIGLLLTFDNNNNIQIRRVKGLKKGTAQSNILDESTQMLDAHDNSLIKSPVFQKLKDEYELIKSVANGSEKDTQQSIFLGNITQLYDNKLYEVAVIRRFKDIETLAKKLTKENKIKRTLLERFQREKVTLRNFQIGDLALFLPTRENVNSVGSMSSSTSSLSSSFSSVDLSTPPPLDAMSIQSSPSVIHSNVINQASISGRDKNKLMRPWAAFTAFEESTRYFLKDEKGLTKGKEWFVGRIVTLEHFVADSPSNNPFRLPKGSVWFQVTAVVVSYQGV | 2.1 | 6 and 7–8 copies of each protein, respectively |  | 
2 | full-length S. cerevisiae Atg11 (residues 1-1178) (natural protein, UniProt Q12527 1-1178, looked up, Atg11, Saccharomyces cerevisiae, residues 1-1178 (1178 amino acids, 135 kDa); C terminus carried an HRV3C protease site followed by FLAG and 6x His tags; Residues of the HRV3C site may remain at the C terminus; also called full-length Atg11; source: High Five insect cells, baculovirus expression system, purified (Talon, HiTrap Q, HRV3C cleavage, Superose6 Increase); not shown: FLAG, C-terminal, …) MADADEYSTAPTQQEITPLQTTATIINAISGECITTNVDFFVSLDKFKQFIARKWKIPPDQLLILLPYGNKLKPSMFKELLINRSFTLNDFYVYDRRLFSLVSKPTPTNLLTSKDSNPMNSPNSNDLTETLEYLIKNSHISQYQGSDTIMIKPMPSPLEDADVDLSRLNYHSVTSLLTTNLGWLSALEIDVHYFKSLIPDIIAHIKRIFDGLTVCSQYLKLYCFDVESLYNSNVQFLNQLVDNGMTSKWEKCFNDTLSKLTALEGDSLQKFINIESLLENEKSVKILNHSINGKLNKIKREIDENASFRDIITVNIDRLRQMFTPNESKFELEDQMAESFEVLVSEMRTRSRNVLDKEEEEFNSQEFLKSMNVMLEKDKKESVKTLFTISQALYSQIGELIDLKKSLQKHAVAILGNIAFTQMEILGIKRLLLNECNKDLELYKKYEVEFAQVEDLPLIYGLYLIEKYRRLSWFQQILSFISNFNQDLELFKQNELRTRNKWVKNFGSIATVFCEDLLSSSDFKRLNEYHSHTSPPNEDEEDENENSIANYRQDLVKVSQAIDNYMTQIKETDVSEPIIDLLSKTLFETKRFHIIYSNFKNNNNNSSNGNSISPEGSIALKSDDVVKGYKTRIKKLESLLHEFQYSDIGHWPQGVLNTHLKPFRGSATSINKKKFLGASVLLEPANISEVNIDSVSQANNHQIQELESNVDDLLHQLQLLKEENNRKSMQISEMGKKISDLEVEKTAYRETLTNLNQELARLTNEEQSHRTEIFTLNASFKKQLNDIISQDNEKIEKLTGDYDDVSKSRERLQMDLDESNKKHEQEVNLLKADIERLGKQIVTSEKSYAETNSSSMEKGEKFETIPLAEDPGRENQISAYTQTLQDRIFDIISTNIFILENIGLLLTFDNNNNIQIRRVKGLKKGTAQSNILDESTQMLDAHDNSLIKSPVFQKLKDEYELIKSVANGSEKDTQQSIFLGNITQLYDNKLYEVAVIRRFKDIETLAKKLTKENKIKRTLLERFQREKVTLRNFQIGDLALFLPTRENVNSVGSMSSSTSSLSSSFSSVDLSTPPPLDAMSIQSSPSVIHSNVINQASISGRDKNKLMRPWAAFTAFEESTRYFLKDEKGLTKGKEWFVGRIVTLEHFVADSPSNNPFRLPKGSVWFQVTAVVVSYQGV |  |  | 1.6 | 8–9 copies of Atg11
3 | N-terminal region of Atg11 (residues 1-646) (protein) MADADEYSTAPTQQEITPLQTTATIINAISGECITTNVDFFVSLDKFKQFIARKWKIPPDQLLILLPYGNKLKPSMFKELLINRSFTLNDFYVYDRRLFSLVSKPTPTNLLTSKDSNPMNSPNSNDLTETLEYLIKNSHISQYQGSDTIMIKPMPSPLEDADVDLSRLNYHSVTSLLTTNLGWLSALEIDVHYFKSLIPDIIAHIKRIFDGLTVCSQYLKLYCFDVESLYNSNVQFLNQLVDNGMTSKWEKCFNDTLSKLTALEGDSLQKFINIESLLENEKSVKILNHSINGKLNKIKREIDENASFRDIITVNIDRLRQMFTPNESKFELEDQMAESFEVLVSEMRTRSRNVLDKEEEEFNSQEFLKSMNVMLEKDKKESVKTLFTISQALYSQIGELIDLKKSLQKHAVAILGNIAFTQMEILGIKRLLLNECNKDLELYKKYEVEFAQVEDLPLIYGLYLIEKYRRLSWFQQILSFISNFNQDLELFKQNELRTRNKWVKNFGSIATVFCEDLLSSSDFKRLNEYHSHTSPPNEDEEDENENSIANYRQDLVKVSQAIDNYMTQIKETDVSEPIIDLLSKTLFETKRFHIIYSNFKNNNNNSSNGNSISPEGSIALKSDDVVKGYKTRIKKLESLLHEFQYS |  | 6 and 7–8 copies of each protein, respectively |  | 
